{
  "source": "FireProtDB (doi:10.1093/protein/13.4.299)",
  "conditions": "Homo sapiens, DSC, reversible: yes, whole UniProt chain shown; for Tm / heat capacity change of unfolding / unfolding enthalpy (calorimetric) / unfolding enthalpy (van 't Hoff): Thermal; for denaturant m value / denaturant midpoint (higher = more stable) / unfolding free energy: 25 °C, GdnHCl",
  "note": "Several values for one entry are separate records, joined by “and”; a condition that tells them apart may be missing. Identical values can stand only once.",
  "data": [
    {"protein": "Lysozyme C wild type, P61626 (protein) MKALIVLGLVLLSVTVQGKVFERCELARTLKRLGMDGYRGISLANWMCLAKWESGYNTRATNYNAGDRSTDYGIFQINSRYWCNDGKTPGAVNACHLSCSALLQDNIADAVACAKRVVRDPQGIRAWVAWRNRCQNRDVRQYVQGCGV", "values": [
      {"measurement": "Tm", "setting": "pH 2.63, glycine-HCl 50 mM", "value": 55.6, "unit": "°C"},
      {"measurement": "heat capacity change of unfolding", "setting": "pH 2.63, glycine-HCl 50 mM", "value": 1.94, "unit": "kcal/mol/K"},
      {"measurement": "unfolding enthalpy (calorimetric)", "setting": "pH 2.63, glycine-HCl 50 mM", "value": 90.6, "unit": "kcal/mol"},
      {"measurement": "unfolding enthalpy (van 't Hoff)", "setting": "pH 2.63, glycine-HCl 50 mM", "value": 96.3, "unit": "kcal/mol"},
      {"measurement": "Tm", "setting": "pH 2.64, glycine-HCl 50 mM", "value": 56.4, "unit": "°C"},
      {"measurement": "heat capacity change of unfolding", "setting": "pH 2.64, glycine-HCl 50 mM", "value": 1.63, "unit": "kcal/mol/K"},
      {"measurement": "unfolding enthalpy (calorimetric)", "setting": "pH 2.64, glycine-HCl 50 mM", "value": 95.1, "unit": "kcal/mol"},
      {"measurement": "unfolding enthalpy (van 't Hoff)", "setting": "pH 2.64, glycine-HCl 50 mM", "value": 95.6, "unit": "kcal/mol"},
      {"measurement": "Tm", "setting": "pH 2.68, glycine-HCl 50 mM", "value": 56.8, "unit": "°C"},
      {"measurement": "heat capacity change of unfolding", "setting": "pH 2.68, glycine-HCl 50 mM", "value": 1.94, "unit": "kcal/mol/K"},
      {"measurement": "unfolding enthalpy (calorimetric)", "setting": "pH 2.68, glycine-HCl 50 mM", "value": 92, "unit": "kcal/mol"},
      {"measurement": "unfolding enthalpy (van 't Hoff)", "setting": "pH 2.68, glycine-HCl 50 mM", "value": 96.3, "unit": "kcal/mol"},
      {"measurement": "Tm", "setting": "pH 2.75, glycine-HCl 50 mM", "value": 58.2, "unit": "°C"},
      {"measurement": "heat capacity change of unfolding", "setting": "pH 2.75, glycine-HCl 50 mM", "value": 1.77, "unit": "kcal/mol/K"},
      {"measurement": "unfolding enthalpy (calorimetric)", "setting": "pH 2.75, glycine-HCl 50 mM", "value": 97.5, "unit": "kcal/mol"},
      {"measurement": "unfolding enthalpy (van 't Hoff)", "setting": "pH 2.75, glycine-HCl 50 mM", "value": 99, "unit": "kcal/mol"},
      {"measurement": "Tm", "setting": "pH 2.78, glycine-HCl 50 mM", "value": 59, "unit": "°C"},
      {"measurement": "heat capacity change of unfolding", "setting": "pH 2.78, glycine-HCl 50 mM", "value": 1.31, "unit": "kcal/mol/K"},
      {"measurement": "unfolding enthalpy (calorimetric)", "setting": "pH 2.78, glycine-HCl 50 mM", "value": 98, "unit": "kcal/mol"},
      {"measurement": "unfolding enthalpy (van 't Hoff)", "setting": "pH 2.78, glycine-HCl 50 mM", "value": 101, "unit": "kcal/mol"},
      {"measurement": "Tm", "setting": "pH 2.84, glycine-HCl 50 mM", "value": 60.3, "unit": "°C"},
      {"measurement": "heat capacity change of unfolding", "setting": "pH 2.84, glycine-HCl 50 mM", "value": 1.67, "unit": "kcal/mol/K"},
      {"measurement": "unfolding enthalpy (calorimetric)", "setting": "pH 2.84, glycine-HCl 50 mM", "value": 98.5, "unit": "kcal/mol"},
      {"measurement": "unfolding enthalpy (van 't Hoff)", "setting": "pH 2.84, glycine-HCl 50 mM", "value": 103, "unit": "kcal/mol"},
      {"measurement": "Tm", "setting": "pH 2.87, glycine-HCl 50 mM", "value": 60.5, "unit": "°C"},
      {"measurement": "heat capacity change of unfolding", "setting": "pH 2.87, glycine-HCl 50 mM", "value": 1.7, "unit": "kcal/mol/K"},
      {"measurement": "unfolding enthalpy (calorimetric)", "setting": "pH 2.87, glycine-HCl 50 mM", "value": 99, "unit": "kcal/mol"},
      {"measurement": "unfolding enthalpy (van 't Hoff)", "setting": "pH 2.87, glycine-HCl 50 mM", "value": 99, "unit": "kcal/mol"},
      {"measurement": "Tm", "setting": "pH 2.93, glycine-HCl 50 mM", "value": 62.5, "unit": "°C"},
      {"measurement": "heat capacity change of unfolding", "setting": "pH 2.93, glycine-HCl 50 mM", "value": 1.46, "unit": "kcal/mol/K"},
      {"measurement": "unfolding enthalpy (calorimetric)", "setting": "pH 2.93, glycine-HCl 50 mM", "value": 102, "unit": "kcal/mol"},
      {"measurement": "unfolding enthalpy (van 't Hoff)", "setting": "pH 2.93, glycine-HCl 50 mM", "value": 102, "unit": "kcal/mol"},
      {"measurement": "denaturant m value", "setting": "pH 3, glycine-HCl 50 mM", "value": "3.23 kcal/mol/M and 3.01 kcal/mol/M"},
      {"measurement": "denaturant midpoint (higher = more stable)", "setting": "pH 3, glycine-HCl 50 mM", "value": "2.9 M and 2.1 M"},
      {"measurement": "unfolding free energy", "setting": "pH 3, glycine-HCl 50 mM", "value": "9.49 kcal/mol and 6.19 kcal/mol"},
      {"measurement": "denaturant m value", "setting": "pH 4, glycine-HCl 50 mM", "value": "3.37 kcal/mol/M and 2.96 kcal/mol/M"},
      {"measurement": "denaturant midpoint (higher = more stable)", "setting": "pH 4, glycine-HCl 50 mM", "value": "3.8 M and 2.8 M"},
      {"measurement": "unfolding free energy", "setting": "pH 4, glycine-HCl 50 mM", "value": "12.9 kcal/mol and 8.25 kcal/mol"},
      {"measurement": "denaturant m value", "setting": "pH 7, Sodium phosphate 50 mM", "value": 3.01, "unit": "kcal/mol/M"},
      {"measurement": "denaturant midpoint (higher = more stable)", "setting": "pH 7, Sodium phosphate 50 mM", "value": 4, "unit": "M"},
      {"measurement": "unfolding free energy", "setting": "pH 7, Sodium phosphate 50 mM", "value": 12.1, "unit": "kcal/mol"}
    ]}
  ]
}
